The target of this experiment is T1, CSP on P. falciparum sporozoites (Plasmodium falciparum, UniProt P19597 19-374).
T1 construct: whole, on cells; also called P. falciparum sporozoites, which present CSP in its native conformation
Nature of the experiment: sporozoite ELISA, mouse sera Day 7 (FIG. 6D).

T1 sequence (P19597 19-374): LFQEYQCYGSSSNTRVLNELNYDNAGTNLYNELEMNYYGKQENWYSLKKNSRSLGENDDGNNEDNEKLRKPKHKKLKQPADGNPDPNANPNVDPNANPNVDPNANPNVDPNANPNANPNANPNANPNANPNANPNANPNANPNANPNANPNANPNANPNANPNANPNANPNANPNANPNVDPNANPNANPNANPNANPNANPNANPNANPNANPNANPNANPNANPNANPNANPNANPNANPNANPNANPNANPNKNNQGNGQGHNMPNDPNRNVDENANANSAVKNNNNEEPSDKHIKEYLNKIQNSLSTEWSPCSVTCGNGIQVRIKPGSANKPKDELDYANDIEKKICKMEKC

B1: 10e DMAb-2 (antibody, human IgG1, lambda, V domains shown)
VH: QVQLVESGGGVVQPGRSLRLSCAASGFAFSNYGMHWVRQAPGKGLEWVAVIWHDGSLKYYTQSVKGRFTISRDNSKNTLYLQMNSLRAEDTAVYYCTVWYLETPDDGFDIWGQGTMVTVSS
VL: QLVLTQPPSASASLGVSVTLTCTLSHGHTSKAIAWHQQQPGKGPRYLMKVNSDGSHTKGAAVPDRFSGSTSGAERHFTISNLQSDDEADYYCQAWDSGIWVFGGGTKLTVLG
notes: also called MGU10-based engineered DMAb 2; 10e DMAb-2 (MGU10 VH-1 / MGU10 VL)
Regarding B1, the binding result is “binds”.

Source of the values: US20240287166A1 (published 2024).
